Positions count from the first letter of the chain named. In names and notes the source's numbering stands.
T1: StBax1 mutant R86A/R87A (Sulfolobus tokodaii, UniProt Q970I1 1-481, R86A | R87A)
T1 construct: Expression and purification of the mutants are not described
T1 sequence: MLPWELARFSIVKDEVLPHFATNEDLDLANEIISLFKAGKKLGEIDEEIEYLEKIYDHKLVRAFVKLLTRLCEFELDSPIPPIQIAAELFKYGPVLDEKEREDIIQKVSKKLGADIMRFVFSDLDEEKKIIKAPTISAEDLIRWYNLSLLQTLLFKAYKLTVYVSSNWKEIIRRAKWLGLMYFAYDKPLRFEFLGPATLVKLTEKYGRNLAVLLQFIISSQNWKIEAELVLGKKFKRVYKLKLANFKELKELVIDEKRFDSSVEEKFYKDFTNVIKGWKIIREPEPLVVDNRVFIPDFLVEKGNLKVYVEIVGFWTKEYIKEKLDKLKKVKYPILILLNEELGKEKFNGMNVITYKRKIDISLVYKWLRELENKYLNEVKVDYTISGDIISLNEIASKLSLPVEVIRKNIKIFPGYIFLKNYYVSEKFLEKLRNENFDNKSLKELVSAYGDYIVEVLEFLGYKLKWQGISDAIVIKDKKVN

T2: AfBax1 mutant D133A/E135A (Archaeoglobus fulgidus, UniProt O29890 1-468, D133A | E135A)
T2 construct: Expression and purification of the mutants are not described; also called AfBax1 with substitutions D133A/E135A
T2 sequence: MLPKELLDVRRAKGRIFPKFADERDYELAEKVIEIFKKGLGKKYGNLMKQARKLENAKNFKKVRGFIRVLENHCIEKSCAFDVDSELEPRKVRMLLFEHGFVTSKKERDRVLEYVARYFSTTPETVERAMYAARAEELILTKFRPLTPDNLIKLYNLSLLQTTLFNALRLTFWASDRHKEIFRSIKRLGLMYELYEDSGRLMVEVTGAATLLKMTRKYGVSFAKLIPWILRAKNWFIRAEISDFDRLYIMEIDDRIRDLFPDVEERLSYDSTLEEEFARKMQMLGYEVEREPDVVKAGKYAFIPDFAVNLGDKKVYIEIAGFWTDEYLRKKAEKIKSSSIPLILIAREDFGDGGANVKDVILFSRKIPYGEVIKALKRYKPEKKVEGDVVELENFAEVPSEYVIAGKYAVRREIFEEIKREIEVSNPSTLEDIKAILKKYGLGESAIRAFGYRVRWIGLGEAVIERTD

B1: His6-StBax1 (Sulfolobus tokodaii Bax1) (enzyme, UniProt Q970I1 1-481, looked up)
chain: T1 sequence with A86R, A87R
notes: Homodimer when alone in solution (size-exclusion chromatography); one copy in the heterodimer with StXPB; source: E. coli Rosetta (DE3) pLysS, from pET15b, purified (heat step, ammonium sulfate, HisTrap, gel filtration)
B2: StXPB mutant E357A/E360A (enzyme, Sulfolobus tokodaii)
chain: MVYLRYFKGLILSDAYAPGLKWSDELKAYSALAFKYRDVRKYFLEKEIEVEENVIDSLPFPLIKDKIELRDYQAEAVKAWLKEKRGIIVLPTGAGKTQVALKIVSIMKVATLIVVPTIDLITQWKERINKYLDFDPGIIGGGEDSLKGITVITYDSAYTRAEELGNKFPLLIFDEVHHLPSEGYSIMAQLFASPYRLGLTATPERDDGKHELYPILVGPIVYRKSVEELAGKYIAKYKIKKLYVSLTNEEKKRYDGLRKKLKDFLSSRGLKLQNLDDFHRLVKLAAKDKEAREALLAWHESLNIAVNSQSKIEKLREILQEYKNEKIIVFTRDTQMAYRISKTFLIPVVTYKTDKDAREAILQKFRDGEYRVIVASTVFDEGVDVPDATLAIVMGGYGTKRQFLQRLGRILRKKDKEALLIEIVTKGTADYRLSRRRRE
notes: Expression and purification of the mutants are not described
B3: His6-AfXPB (Archaeoglobus fulgidus XPB) (enzyme, UniProt O29889 1-452, looked up)
chain: MQMIAEIYYERGTIVVKGDAHVPHAKFDSRSGTYRALAFRYRDIIEYFESNGIEFVDNAADPIPTPYFDAEISLRDYQEKALERWLVDKRGCIVLPTGSGKTHVAMAAINELSTPTLIVVPTLALAEQWKERLGIFGEEYVGEFSGRIKELKPLTVSTYDSAYVNAEKLGNRFMLLIFDEVHHLPAESYVQIAQMSIAPFRLGLTATFEREDGRHEILKEVVGGKVFELFPDSLAGKHLAKYTIKRIFVPLAEDERVEYEKREKVYKQFLRARGITLRRAEDFNKIVMASGYDERAYEALRAWEEARRIAFNSKNKIRKLREILERHRKDKIIIFTRHNELVYRISKVFLIPAITHRTSREEREEILEGFRTGRFRAIVSSQVLDEGIDVPDANVGVIMSGSGSAREYIQRLGRILRPSKGKKEAVLYELISRGTGEVNTARRRKNAAKGAA
notes: residues 1-445 and 17 residues of the N-terminal His6 tag are seen in the crystal; also called full length AfXPB; source: E. coli Rosetta (DE3) pLysS, purified (heat step, HisTrap, HiTrap SP, Sephacryl S-200); not shown: His6, N-terminal, kept
B4: His6-AfBax1 (Archaeoglobus fulgidus Bax1) (enzyme)
chain: T2 sequence with A133D, A135E
notes: residues 1-467 are seen in the crystal of the untagged form; Used in ITC as His6-AfBax1; also called wild type AfBax1; source: E. coli Rosetta, from pET-28b, purified in the same way as His6-AfXPB
B5: His6-AfXPB C-terminal half (residues 234-452) (domain or fragment, Archaeoglobus fulgidus, UniProt O29889 234-452, looked up)
chain: LAGKHLAKYTIKRIFVPLAEDERVEYEKREKVYKQFLRARGITLRRAEDFNKIVMASGYDERAYEALRAWEEARRIAFNSKNKIRKLREILERHRKDKIIIFTRHNELVYRISKVFLIPAITHRTSREEREEILEGFRTGRFRAIVSSQVLDEGIDVPDANVGVIMSGSGSAREYIQRLGRILRPSKGKKEAVLYELISRGTGEVNTARRRKNAAKGAA
notes: also called AfXPB-CTD; His6-AfXPB-CTD; source: purified

How the values were obtained:
[1] = target: StBax1 mutant L89A/F90A/P94S/V95S (Sulfolobus tokodaii) (UniProt Q970I1); test: ITC; His6-StXPB (30 uM) injected into His6-StBax1 (3 uM); 16 injections of 2.36 ul; 40 C; 10 mM Tris-Cl pH 7.5, 200 mM NaCl, 5% glycerol, 0.01% sodium azide; single binding site fit; similar procedures for mutants
[2] = target: the molecule itself; test: SEC; S200 size-exclusion chromatography of the proteins alone and mixed; calibrated with Conalbumin (75 kDa), Ovalbumin (44 kDa) and Lactalbumin (14 kDa)
StBax1 mutant R86A/R87A = target: T1, StBax1 mutant R86A/R87A; test: ITC; His6-StXPB (30 uM) injected into His6-StBax1 (3 uM); 16 injections of 2.36 ul; 40 C; 10 mM Tris-Cl pH 7.5, 200 mM NaCl, 5% glycerol, 0.01% sodium azide; single binding site fit; similar procedures for mutants; conditions: both partners purified
[3] = target: T2, AfBax1 mutant D133A/E135A; test: ITC; His6-AfXPB (139.5 uM) or His6-AfXPB-CTD (202 uM) injected into His6-AfBax1 (13.3 uM); 16 injections of 2.36 ul; 40 C; 10 mM Tris-Cl pH 7.5, 500 mM NaCl, 5% glycerol, 0.01% sodium azide; single binding site fit; similar procedures for mutants; conditions: both partners purified
[4] = target: B4; test: as above; conditions: both partners purified

| Molecule | stoichiometry N [2] | Kd [4] | stoichiometry N [4] | further results |
| --- | --- | --- | --- | --- |
| His6-StXPB (Sulfolobus tokodaii XPB, XPBII) (from UniProt Q970I2 1-439) (enzyme) |  |  |  | stoichiometry N [1]: 1 |
| B1 | 2 |  |  |  |
| B2 |  |  |  | Kd (StBax1 mutant R86A/R87A): 64.9 nM; stoichiometry N (StBax1 mutant R86A/R87A): 1 |
| B3 |  | 15.2 nM | 1 | Kd [3]: 157 nM; stoichiometry N [3]: 1 |
| B4 | 2 |  |  |  |
| B5 |  | 0.5 nM | 1 |  |
